Patent US20240058465A1 (SUTRO BIOPHARMA, published 2024)
Changes are numbered by the printed parent chain.

B1: SRP2188-F08 (antibody, IgG1, V domains shown)
VH: EVQLVESGGGLVQPGGSLRLSCAASGFNIPDFEIHWVRQAPGKGLEWVARIEPDDGATDYADSVKGRFTISADTSKNTAYLQMNSLRAEDTAVYYCARDYGVFDYWGQGTLVTVSS
VL: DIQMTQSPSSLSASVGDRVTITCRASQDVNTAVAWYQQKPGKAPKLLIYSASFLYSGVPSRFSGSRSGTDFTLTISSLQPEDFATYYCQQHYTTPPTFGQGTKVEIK
notes: IgG1 with trastuzumab LC; HIS- and FLAG-tagged; cell-free expressed
B2: SRP2188-F06 (antibody, IgG1, V domains shown)
VH: B1 VH with P30L, F32Y, E33D, A49G, R50G, E52D
VL: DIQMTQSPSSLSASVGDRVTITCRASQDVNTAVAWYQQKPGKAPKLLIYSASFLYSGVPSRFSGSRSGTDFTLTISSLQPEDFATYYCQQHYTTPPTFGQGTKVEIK
notes: as for B1
B3: SRP2188-G02 (antibody, IgG1, V domains shown)
VH: B1 VH with P30V, D31G, F32Y, E33D, G42S, A49G, R50G, E52D, D54N
VL: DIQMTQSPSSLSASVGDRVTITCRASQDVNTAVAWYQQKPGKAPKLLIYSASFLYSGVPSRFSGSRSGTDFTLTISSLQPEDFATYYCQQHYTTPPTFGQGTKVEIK
notes: as for B1
B4: SRP2188-G03 (antibody, IgG1, V domains shown)
VH: B1 VH with P30V, F32Y, E33D, A49V, R50G, E52D, D54R, A57S, Y100F
VL: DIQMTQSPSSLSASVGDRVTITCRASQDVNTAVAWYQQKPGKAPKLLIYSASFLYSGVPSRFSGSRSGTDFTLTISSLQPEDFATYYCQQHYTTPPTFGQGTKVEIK
notes: as for B1
B5: SRP2188-F11 (antibody, IgG1, V domains shown)
VH: B1 VH with P30T, D31G, F32Y, E33D, A49G, R50G, E52D, D54E
VL: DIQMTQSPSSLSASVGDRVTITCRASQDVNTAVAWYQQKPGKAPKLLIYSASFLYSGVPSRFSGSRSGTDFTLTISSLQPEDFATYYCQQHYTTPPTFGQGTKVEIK
notes: as for B1
B6: Conjugate 28 (A05 x B04-F404-LP8 biparatopic) (bispecific antibody, human IgG1, kappa)
heavy 1: MEVQLVESGGGLVQPGGSLRLSCAASGFNIKEYHIHWVRQAPGKGLEWVGYISPNSGSTYYADSVKGRFTISADTSKNTAYLQMNSLRAEDTAVYYCARDHRRYVRPFDYWGQGTLVTVSSASTKGPSVFPLAPSSKSTSGGTAALGCLVKDYFPEPVTVSWNSGALTSGVHTFPAVLQSSGLYSLSSVVTVPSSSLGTQTYICNVNHKPSNTKVDKKVEPKSCDKTHTCPPCPAPELLGGPSVFLFPPKPKDTLMISRTPEVTCVVVDVSHEDPEVKFNWYVDGVEVHNAKTKPREEQYNSTYRVVSVLTVLHQDWLNGKEYKCKVSNKALPAPIEKTISKAKGQPREPQVYTLPPSREEMTKNQVSLWCLVKGFYPSDIAVEWESNGQPENNYKTTPPVLDSDGSFLYSKLTVDKSRWQQGNVFSCSVMHEALHNHYTQKSLSLSPGK
heavy 2: MEVQLVESGGGLVQPGGSLRLSCAASGFNIAGYAIHWVRQAPGKGLEWVGLITPTPGTSNYADSVKGRFTISVDTSKNTAYLQMNSLRAEDTAAYYCARDYRGVYLYSFYYDYWGQGTLVTVSSASTKGPSVFPLAPSSKSTSGGTAALGCLVKDYFPEPVTVSWNSGALTSGVHTFPAVLQSSGLYSLSSVVTVPSSSLGTQTYICNVNHKPSNTKVDKKVEPKSCDKTHTCPPCPAPELLGGPSVFLFPPKPKDTLMISRTPEVTCVVVDVSHEDPEVKFNWYVDGVEVHNAKTKPREEQYNSTYRVVSVLTVLHQDWLNGKEYKCKVSNKALPAPIEKTISKAKGQPREPQVYTLPPSREEMTKNQVSLSCAVKGFYPSDIAVEWESNGQPENNYKTTPPVLDSDGSFLVSKLTVDKSRWQQGNVFSCSVMHEALHNHYTQKSLSLSPGK
light: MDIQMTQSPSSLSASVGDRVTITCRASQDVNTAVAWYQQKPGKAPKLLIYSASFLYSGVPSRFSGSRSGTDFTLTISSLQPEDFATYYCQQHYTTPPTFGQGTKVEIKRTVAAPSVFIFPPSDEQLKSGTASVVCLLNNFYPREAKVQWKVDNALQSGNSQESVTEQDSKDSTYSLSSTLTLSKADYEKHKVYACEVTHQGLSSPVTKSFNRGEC
modifications: pAMF at F404 (EU), linked to LP8
B7: Conjugate 21 (D04-F404-LP32) (antibody, human IgG1, kappa)
heavy: MEVQLVESGGGLVQPGGSLRLSCAASGFNISDYDIHWVRQAPGKGLEWVGGIDPADGSTDYADSVKGRFTISADTSKNTAYLQMNSLRAEDTAVYYCARDYGVYDYWGQGTLVTVSSASTKGPSVFPLAPSSKSTSGGTAALGCLVKDYFPEPVTVSWNSGALTSGVHTFPAVLQSSGLYSLSSVVTVPSSSLGTQTYICNVNHKPSNTKVDKKVEPKSCDKTHTCPPCPAPELLGGPSVFLFPPKPKDTLMISRTPEVTCVVVDVSHEDPEVKFNWYVDGVEVHNAKTKPREEQYNSTYRVVSVLTVLHQDWLNGKEYKCKVSNKALPAPIEKTISKAKGQPREPQVYTLPPSREEMTKNQVSLTCLVKGFYPSDIAVEWESNGQPENNYKTTPPVLDSDGSFLYSKLTVDKSRWQQGNVFSCSVMHEALHNHYTQKSLSLSPGK
light: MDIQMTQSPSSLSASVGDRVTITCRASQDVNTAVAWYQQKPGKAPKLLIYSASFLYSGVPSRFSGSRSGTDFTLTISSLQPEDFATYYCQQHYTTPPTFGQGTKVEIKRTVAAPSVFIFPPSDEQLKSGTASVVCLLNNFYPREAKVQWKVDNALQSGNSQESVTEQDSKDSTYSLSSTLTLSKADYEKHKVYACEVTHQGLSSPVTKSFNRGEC
modifications: pAMF at F404 (EU), linked to LP32
B8: Conjugate 23 (D04 x D04-F404-LP8) (antibody, human IgG1, kappa)
heavy 1: B7 heavy with T366W
heavy 2: B7 heavy with T366S, L368A, Y406V
light: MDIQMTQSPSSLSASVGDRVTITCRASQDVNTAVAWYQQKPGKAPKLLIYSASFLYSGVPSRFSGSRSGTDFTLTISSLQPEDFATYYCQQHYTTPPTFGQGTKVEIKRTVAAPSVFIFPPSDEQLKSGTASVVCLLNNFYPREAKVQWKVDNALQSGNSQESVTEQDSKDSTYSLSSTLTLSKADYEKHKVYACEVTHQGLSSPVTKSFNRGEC
modifications: pAMF at F404 (EU), linked to LP8
B9: Conjugate 20 (D04-F404-LP31) (antibody, human IgG1, kappa)
heavy: B7 heavy
light: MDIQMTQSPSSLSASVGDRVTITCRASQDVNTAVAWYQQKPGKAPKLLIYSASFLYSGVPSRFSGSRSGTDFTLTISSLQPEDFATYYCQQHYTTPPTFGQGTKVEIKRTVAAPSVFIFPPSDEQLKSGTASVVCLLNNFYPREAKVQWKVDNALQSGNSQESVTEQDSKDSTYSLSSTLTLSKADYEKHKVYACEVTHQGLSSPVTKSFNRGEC
modifications: pAMF at F404 (EU), linked to LP31
B10: Conjugate 27 (D04 x B04-F404-LP8 biparatopic) (bispecific antibody, human IgG1, kappa)
heavy 1: B7 heavy with T366W
heavy 2: B6 heavy 2
light: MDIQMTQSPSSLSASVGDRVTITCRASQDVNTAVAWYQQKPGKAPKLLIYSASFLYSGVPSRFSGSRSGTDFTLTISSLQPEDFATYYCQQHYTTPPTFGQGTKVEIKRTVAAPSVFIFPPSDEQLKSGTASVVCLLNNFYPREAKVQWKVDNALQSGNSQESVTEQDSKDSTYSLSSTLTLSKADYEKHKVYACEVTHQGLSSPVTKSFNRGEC
modifications: pAMF at F404 (EU), linked to LP8
B11: Conjugate 19 (D04-F404-LP30) (antibody, human IgG1, kappa)
heavy: B7 heavy
light: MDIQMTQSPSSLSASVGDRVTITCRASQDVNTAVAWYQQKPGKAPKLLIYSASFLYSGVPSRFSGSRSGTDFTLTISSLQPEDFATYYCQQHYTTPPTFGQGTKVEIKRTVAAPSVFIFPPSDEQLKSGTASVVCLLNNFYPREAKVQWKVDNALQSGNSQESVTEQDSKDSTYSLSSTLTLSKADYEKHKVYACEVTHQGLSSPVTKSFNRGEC
modifications: pAMF at F404 (EU), linked to LP30
B12: Conjugate 24 (D04 x C01-F404-LP8 biparatopic) (bispecific antibody, human IgG1, kappa)
heavy 1: B7 heavy with T366W
heavy 2: B7 heavy with S31N, D32G, G51Y, A55N, S58A, D60N, Y104F, T366S, L368A, Y406V
light: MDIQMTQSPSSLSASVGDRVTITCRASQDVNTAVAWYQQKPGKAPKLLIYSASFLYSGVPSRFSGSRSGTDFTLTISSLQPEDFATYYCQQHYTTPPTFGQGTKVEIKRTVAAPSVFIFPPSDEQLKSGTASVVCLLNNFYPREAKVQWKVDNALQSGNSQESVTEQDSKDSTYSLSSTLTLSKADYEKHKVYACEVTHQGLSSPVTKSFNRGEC
modifications: pAMF at F404 (EU), linked to LP8
B13: Conjugate 25 (D04 x B09-F404-LP8 biparatopic) (bispecific antibody, human IgG1, kappa)
heavy 1: B7 heavy with T366W
heavy 2: MEVQLVESGGGLVQPGGSLRLSCAASGFNINNSYIHWVRQAPGKGLEWVGIIDPNNGSTAYADSVKGRFTISADTSKNTAYLQMNSLRAEDTAVYYCARSRWYRVLWSYVLDYWGQGTLVTVSSASTKGPSVFPLAPSSKSTSGGTAALGCLVKDYFPEPVTVSWNSGALTSGVHTFPAVLQSSGLYSLSSVVTVPSSSLGTQTYICNVNHKPSNTKVDKKVEPKSCDKTHTCPPCPAPELLGGPSVFLFPPKPKDTLMISRTPEVTCVVVDVSHEDPEVKFNWYVDGVEVHNAKTKPREEQYNSTYRVVSVLTVLHQDWLNGKEYKCKVSNKALPAPIEKTISKAKGQPREPQVYTLPPSREEMTKNQVSLSCAVKGFYPSDIAVEWESNGQPENNYKTTPPVLDSDGSFLVSKLTVDKSRWQQGNVFSCSVMHEALHNHYTQKSLSLSPGK
light: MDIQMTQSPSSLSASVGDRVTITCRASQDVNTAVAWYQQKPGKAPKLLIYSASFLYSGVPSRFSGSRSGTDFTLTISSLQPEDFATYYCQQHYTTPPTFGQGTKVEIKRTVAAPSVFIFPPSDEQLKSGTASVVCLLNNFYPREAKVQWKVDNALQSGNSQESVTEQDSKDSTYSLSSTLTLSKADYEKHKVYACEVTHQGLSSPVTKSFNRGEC
modifications: pAMF at F404 (EU), linked to LP8
B14: Conjugate 17 (D04-F404-LP14) (antibody, human IgG1, kappa)
heavy: B7 heavy
light: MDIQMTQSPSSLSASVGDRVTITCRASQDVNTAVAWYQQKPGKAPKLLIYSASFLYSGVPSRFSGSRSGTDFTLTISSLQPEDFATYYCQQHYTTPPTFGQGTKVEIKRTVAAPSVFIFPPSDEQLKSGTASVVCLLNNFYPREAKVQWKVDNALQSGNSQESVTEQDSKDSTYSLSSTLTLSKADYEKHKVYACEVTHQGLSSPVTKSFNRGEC
modifications: pAMF at F404 (EU), linked to LP14
B15: Conjugate 26 (D04 x A05-F404-LP8 biparatopic) (bispecific antibody, human IgG1, kappa)
heavy 1: B7 heavy with T366W
heavy 2: B6 heavy 1 with W370S, L372A, Y410V
light: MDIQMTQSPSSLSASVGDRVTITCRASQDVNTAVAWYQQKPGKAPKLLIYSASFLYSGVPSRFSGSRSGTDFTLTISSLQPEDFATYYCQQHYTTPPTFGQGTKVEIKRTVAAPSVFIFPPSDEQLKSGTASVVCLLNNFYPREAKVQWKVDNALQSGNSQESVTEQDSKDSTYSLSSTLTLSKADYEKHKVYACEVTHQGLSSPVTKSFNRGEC
modifications: pAMF at F404 (EU), linked to LP8
B16: Conjugate 22 (D04-Y180/F404-LP11) (antibody, human IgG1, kappa)
heavy: MEVQLVESGGGLVQPGGSLRLSCAASGFNISDYDIHWVRQAPGKGLEWVGGIDPADGSTDYADSVKGRFTISADTSKNTAYLQMNSLRAEDTAVYYCARDYGVYDYWGQGTLVTVSSASTKGPSVFPLAPSSKSTSGGTAALGCLVKDYFPEPVTVSWNSGALTSGVHTFPAVLQSSGLSLSSVVTVPSSSLGTQTYICNVNHKPSNTKVDKKVEPKSCDKTHTCPPCPAPELLGGPSVFLFPPKPKDTLMISRTPEVTCVVVDVSHEDPEVKFNWYVDGVEVHNAKTKPREEQYNSTYRVVSVLTVLHQDWLNGKEYKCKVSNKALPAPIEKTISKAKGQPREPQVYTLPPSREEMTKNQVSLTCLVKGFYPSDIAVEWESNGQPENNYKTTPPVLDSDGSFLYSKLTVDKSRWQQGNVFSCSVMHEALHNHYTQKSLSLSPGK
light: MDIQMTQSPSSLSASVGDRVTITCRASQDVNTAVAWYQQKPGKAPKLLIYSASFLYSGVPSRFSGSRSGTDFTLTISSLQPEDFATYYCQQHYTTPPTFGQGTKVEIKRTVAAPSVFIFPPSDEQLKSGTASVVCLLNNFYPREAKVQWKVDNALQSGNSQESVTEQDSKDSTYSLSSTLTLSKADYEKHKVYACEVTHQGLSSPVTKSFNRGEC
modifications: pAMF at Y180 and F404 (EU), each linked to LP11
B17: D04-Y180/F404-LP32 (printed under conjugate number 21, DAR 3.85) (antibody, human IgG1, kappa)
heavy: B16 heavy
light: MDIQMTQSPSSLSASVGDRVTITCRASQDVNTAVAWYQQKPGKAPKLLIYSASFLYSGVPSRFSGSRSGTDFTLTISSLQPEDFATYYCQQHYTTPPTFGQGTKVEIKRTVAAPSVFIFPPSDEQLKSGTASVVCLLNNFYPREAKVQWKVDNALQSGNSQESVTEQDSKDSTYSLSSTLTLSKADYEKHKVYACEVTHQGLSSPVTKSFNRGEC
modifications: pAMF at Y180 and F404 (EU), each linked to LP32
B18: Conjugate 1 (D04-Y180/F404-LP1) (antibody, human IgG1, kappa)
heavy: B16 heavy
light: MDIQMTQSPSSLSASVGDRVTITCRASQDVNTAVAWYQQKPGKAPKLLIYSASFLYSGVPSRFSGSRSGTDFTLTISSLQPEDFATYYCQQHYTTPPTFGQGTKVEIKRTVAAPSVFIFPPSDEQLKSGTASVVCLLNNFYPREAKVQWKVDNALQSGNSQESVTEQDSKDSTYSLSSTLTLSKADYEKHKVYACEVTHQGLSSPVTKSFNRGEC
modifications: pAMF at Y180 and F404 (EU), each linked to LP1

molecular target: T1, human ROR1 (hROR1) expressed on cells (human, UniProt Q01973 30-937); experiment: flow cytometry, HCT116-hROR1 cells
T1 construct: Mino cells are the target positive cells of the killing assay; also called receptor tyrosine kinase like orphan receptor 1; HCT 116-hROR1

| Binder | Bmax (MFI) | Kd |
| --- | --- | --- |
| B1 | 9030 MFI | 0.02 nM |
| B2 | 10200 MFI | 0.03 nM |
| B3 | 8920 MFI | 0.02 nM |
| B4 | 8960 MFI | 0.03 nM |
| B5 | 9480 MFI | 0.03 nM |

molecular target: T1, human ROR1 (hROR1) expressed on cells; experiment: cell-based or functional assay

| Binder | Mino Nb-PBD, drug-conjugated 2° antibody Cell Killing IC50 | Mino Nb-PBD, drug-conjugated 2° antibody Cell Killing Span |
| --- | --- | --- |
| B1 | 0.00071 nM | 75% |
| B2 | 0.00055 nM | 75% |
| B3 | 0.00047 nM | 74% |
| B4 | 0.00097 nM | 70% |
| B5 | 0.00099 nM | 68% |

molecular target: receptor tyrosine kinase orphan receptor 1 (ROR1) on Ntera-2 cells (human, UniProt Q01973 30-937); experiment: cell-based or functional assay

| Binder | cell killing EC50, NTERA-2 cells | cell killing Span, NTERA-2 cells |
| --- | --- | --- |
| B6 | 0.028 nM | 88% |
| B7 | 2.96 nM | 97% |
| B8 | 0.022 nM | 83% |
| B9 | > 10 nM | > 60% |
| B10 | 0.024 nM | 89% |
| B11 | 0.043 nM | 83% |
| B12 | 0.017 nM | 85% |
| B13 | 0.018 nM | 87% |
| B14 | 0.03 nM | 77% |
| B15 | 0.028 nM | 84% |
| B16 | > 10 nM | < 20% |
| B17 | > 10 nM | < 20% |
| B18 | 0.085 nM | 56% |

molecular target: T2, human ROR1-ECD (human, UniProt Q01973 30-406); experiment: SPR (Biacore), antibody captured by anti-Fc, human ROR1-ECD analyte
T2 construct: Bought protein; also called hROR1; ROR1-extracellular domain
Protocol: Anti-Fc polyclonal antibodies were immobilized onto a CMS chip (GE Life Sciences) using amine coupling chemistry (from Amine Coupling Kit, GE Life Sciences). The immobilization steps were carried out at a flow rate of 25 μL/min in 1×HBS-EP+buffer (GE Life Sciences; 10× Stock diluted before use). The sensor surfaces were activated for 7 min with a mixture of NHS (0.05 M) and EDC (0.2 M). The Anti-Fc antibodies were injected over all 4 flow cells at a concentration of 25 ug/ml in 10 mM sodium acetate, pH 4.5, for 7 min. Ethanolamine (1 M, pH 8.5) was injected for 7 min to block any remaining activated groups.
Off-rate and kinetic binding experiments were performed at 25° C. using 1×HBS-EP+buffer. Test and control antibodies were injected over the anti-Fc surface at concentrations of 5-10 μg/mL for 12 seconds at a flow rate of 10 μL/min on flow cells 2, 3 and 4, followed by a buffer wash for 30 seconds at the same flow rate. […] After capturing ligand (antibody) on the anti-Fc surface, the analyte (hROR1, Fz or Kr domains, Acro Biosystems, Delaware) was bound for 180 seconds, followed by a 600 second dissociation phase at a flow rate of 50 μL/min. Between each ligand capture and analyte binding cycle, regeneration was carried out using 2 injections of 10 mM Glycine pH 2.0 for 30 seconds at 30 μL/min, followed by a 30 second buffer wash step.

| Binder | Kd | koff | kon |
| --- | --- | --- | --- |
| B1 | 0.428 nM | 0.000422 s⁻¹ | 987000 M⁻¹ s⁻¹ |
| B2 | 0.384 nM | 0.000357 s⁻¹ | 931000 M⁻¹ s⁻¹ |
| B3 | 0.49 nM | 0.000443 s⁻¹ | 905000 M⁻¹ s⁻¹ |
| B4 | 0.373 nM | 0.000316 s⁻¹ | 846000 M⁻¹ s⁻¹ |
| B5 | 0.313 nM | 0.000249 s⁻¹ | 794000 M⁻¹ s⁻¹ |
